Measurements: patent US12104173B2, “Method for differentiation of human pluripotent stem cell lines in suspension culture” (AGENCY FOR SCIENCE, TECHNOLOGY AND RESEARCH, priority 2018, dated 2024)

Assays:
Format in all cases: cell-based, human
[1] = system: hES-3 hESC line; test: CHIR dose: hematopoietic/erythroid differentiation of agitated hPSC-MC aggregates; settings: optimal dose of CHIR-99021, day 4
[2] = system: IMR90 hiPSC line; test: as above; settings: optimal dose of CHIR-99021, day 4
[3] = system: hES-3-MC aggregates; test: BMP4-based differentiation of hES-3-MC aggregates from static or agitated hPSC expansion; settings: BMP4-based protocol; for erythroid cells: starting from 2×10^5 hematopoietic precursors, repeated attempts; for T-bra: Day 2; for KDR: Day 4; for total hematopoietic precursors per well: after 2 weeks of differentiation; for total erythroblast per well: day 28
Excerpt: To test the hypothesis that agitation condition may be a major factor for variable differentiation, hES-3 that was initially expanded under either static (static human pluripotent stem cell (hPSC) expansion) or agitation (agitated human pluripotent stem cell expansion) condition for 7 days were differentiated under static condition using a BMP4-based differentiation protocol. […] (FIG. 10). […] Like-wise, subsequent generation of erythroblast was also severely impaired in cultures derived from agitated as compared to static hPSC expansion group (total erythroblast per well: 4.11±2.4×10^4 vs 26.2±4.7×10^6, respectively, p=0.005; total CD235a population: 0.51±0.1% vs 51.8±2.0%, p<0.0001) (FIG. 1E).
(§1) Mesoderm induction of hPSC-MC aggregates using BMP4 based protocol has previously been described. One million HPSC-MC aggregates were cultured in Stemline II hematopoietic stem cell expansion medium (Sigma-Aldrich, USA) containing 50 ng/ml of BMP4 and 50 ng/ml of VEGF165 under static condition. 48 hours later, half the medium was removed and replaced with Stemline II medium containing 50 ng/ml of BMP4, 50 ng/ml of VEGF165 and 20 ng/ml of bFGF (all cytokines from STEMCELL Technologies). HPSC-MC aggregates were cultured for a further 48 hours before being used for hematopoietic precursors differentiation.
as §1, with “One” for “Mesoderm induction of hPSC-MC aggregates using BMP4 based protocol has previously been described. One”, “VEGF165.” for “VEGF165 under static condition.”, “STEMCELL.” for “STEMCELL”, “precursor expansion.” for “precursors differentiation.”
HPSC-MC aggregates were dissociated into single cells by treatment with TrypLE. Express (ThermoFisher Scientific) for 5 minutes at 37° C., passed through 40 μm cell strainer (Greiner Bio-one), centrifuged at 1300 rpm for 3 minutes to pellet cells, and rinsed once with phosphate buffered saline (PBS) before re-suspension in Stemline II medium. Two hundred thousand cells in 100 μl of Stemline II medium were transferred to a 6-well ultra-low attachment plate and cultured with Blast growth medium (BGM) for 2 weeks in static conditions as detailed herein.
Hematopoietic precursors were mixed with equal volume of Stemline II medium containing 50 ng/ml of SCF (STEMCELL. Technologies) and 3 U/ml EPO (Peprotech, USA), for an additional 7 days. Subsequently, cells were diluted 10-fold with PBS and pelleted by centrifugation at 3000 rpm for 10 minutes. Erythroblast cells were seeded at a concentration of 2.5×10^5 cells/ml in 3 ml of Stemline II media containing 1× Serum Replacement 3 (Sigma-Aldrich), 0.3% v/v Ex-CYTE growth enhancement media supplement (Merck, USA), 100 ng/ml SCF, 3 U/ml EPO, 1 μM hydrocortisone (Sigma-Aldrich), 200 μg/ml holo-transferrin (MP Biomedicals) and 1× penicillin-streptomycin (ThermoFisher Scientific) in 6-well ultra-low attachment plates under static condition. Cells were re-suspended in fresh media every 4 days and reseeded at 2.5×10^5cells/m=l when cell concentrations exceeded 2×10^6cells/ml. Cumulative fold-expansion was calculated by multiplying fold-expansion achieved between passaging of cells over the course of experiment(s).
For flow cytometric analysis of mesoderm and hematopoietic surface markers, cells were incubated for 15 minutes at room temperature with 1:50 diluted direct-conjugated antibodies. The following human antibodies were used: T-brachyury-FITC (R&D Systems), KDR-PE (Miltenyi Biotec), CD31-PE, CD43-FITC, CD 45-PE, CD71-APC, CD235a-FITC (all from BD Biosciences, USA). The following antibodies were used as isotype-controls: mouse IgG1-FITC and PE (Miltenyi Biotec, Germany), mouse IgG2bk-FITC and mouse IgG2ak-APC (BD Biosciences). […]

Row | Molecule | Mesoderm induction % KDR+ PDGFRα− [1] | Mesoderm induction % KDR+ PDGFRα− [2] | erythroid cells ([3]; MC-aggregates expanded in agitation condition) | erythroid cells ([3]; MC-aggregates expanded in static condition) | total CD235a population ([3]; agitated hPSC expansion) | T-bra ([3]; agitated hPSC expansion) | KDR ([3]; agitated hPSC expansion) | total hematopoietic precursors per well ([3]; agitated hPSC expansion) | total erythroblast per well ([3]; agitated hPSC expansion) | total CD235a population ([3]; static hPSC expansion) | T-bra ([3]; static hPSC expansion) | KDR ([3]; static hPSC expansion) | total hematopoietic precursors per well ([3]; static hPSC expansion) | total erythroblast per well ([3]; static hPSC expansion)
1 | Cc1c[nH]c(-c2cnc(NCCNc3ccc(C#N)cn3)nc2-c2ccc(Cl)cc2Cl)n1 [CHIR-99021, 6-[[2-[[4-(2,4-Dichlorophenyl)-5-(5-methyl-1H-imidazol-2-yl)-2-pyrimidinyl]amino]ethyl]amino]-3-pyridinecarbonitrile] | 14.6% | 14.2% |  |  |  |  |  |  |  |  |  |  |  | 
2 | BMP4: bone morphogenic protein; BMP4-based protocol uses 50 ng/ml BMP4 (protein, UniProt P12644 293-408, looked up) Bone morphogenetic protein 4: SPKHHSQRARKKNKNCRRHSLYVDFSDVGWNDWIVAPPGYQAFYCHGDCPFPLADHLNSTNHAIVQTLVNSVNSSIPKACCVPTELSAISMLYLDEYDKVVLKNYQEMVVEGCGCR |  |  | 0.004-4.2×10^7 erythroid cells | 0.25-7.3×10^7 erythroid cells | 0.51±0.1% | 0.50±0.02% | 1.1±0.12% | 1.39×10^5±2.18×10^4 per well | 4.11±2.4×10^4 per well | 51.8±2.0% | 32.6±1.2% | 27.9±3.3% | 5.77×10^6±6.30×10^5 per well | 26.2±4.7×10^6 per well
